In article PMC2111050, “Human RECQ1 Is a DNA Damage Responsive Protein Required for Genotoxic Stress Resistance and Suppression of Sister Chromatid Exchanges” (PLoS ONE, 2007):

Molecular target: T1, Recombinant human RECQ1 helicase (human, UniProt P46063 1-649)
T1 construct: RECQ1 (RECQL) helicase, human; the gene encodes a 649 amino acid protein of 73 kDa; also called RECQL
T1 sequence (looked up): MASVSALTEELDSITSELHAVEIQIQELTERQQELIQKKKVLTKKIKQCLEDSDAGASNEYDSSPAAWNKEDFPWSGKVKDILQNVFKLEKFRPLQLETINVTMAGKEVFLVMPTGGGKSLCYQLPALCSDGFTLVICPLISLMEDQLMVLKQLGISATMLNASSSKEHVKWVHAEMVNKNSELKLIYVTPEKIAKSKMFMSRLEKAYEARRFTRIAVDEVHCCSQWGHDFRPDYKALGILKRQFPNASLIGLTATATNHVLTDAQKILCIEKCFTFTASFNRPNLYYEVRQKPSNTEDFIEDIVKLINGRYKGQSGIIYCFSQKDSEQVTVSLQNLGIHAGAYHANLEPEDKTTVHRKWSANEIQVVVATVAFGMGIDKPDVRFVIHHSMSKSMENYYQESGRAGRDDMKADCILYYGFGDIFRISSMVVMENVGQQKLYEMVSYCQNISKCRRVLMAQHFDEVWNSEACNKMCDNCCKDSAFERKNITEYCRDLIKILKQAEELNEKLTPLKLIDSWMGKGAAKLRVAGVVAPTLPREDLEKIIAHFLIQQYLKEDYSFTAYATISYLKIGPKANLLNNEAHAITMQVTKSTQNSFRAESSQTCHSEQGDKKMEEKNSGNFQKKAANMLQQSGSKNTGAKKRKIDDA
Experiment: ELISA; RECQ1 (14 nM; 1 ng/µl, 50 µl) or BSA coated on wells in carbonate buffer pH 9.6; Rad51 0-76 nM in PBS, 0.5% Tween-20, 3% BSA, 1 h at 30°C; detected with rabbit anti-Rad51; Scatchard analysis, apparent Kd; similar signal with DNaseI (100 U/ml) or EtBr (50 µg/ml)
Conditions: both partners purified

B1: Purified recombinant human Rad51 (natural protein, UniProt Q06609 1-339, looked up)
chain: MAMQMQLEANADTSVEEESFGPQPISRLEQCGINANDVKKLEEAGFHTVEAVAYAPKKELINIKGISEAKADKILAEAAKLVPMGFTTATEFHQRRSEIIQITTGSKELDKLLQGGIETGSITEMFGEFRTGKTQICHTLAVTCQLPIDRGGGEGKAMYIDTEGTFRPERLLAVAERYGLSGSDVLDNVAYARAFNTDHQTQLLYQASAMMVESRYALLIVDSATALYRTDYSGRGELSARQMHLARFLRMLLRLADEFGVAVVITNQVVAQVDGAAMFAADPKKPIGGNIIAHASTTRLYLRKGRGETRICKIYDSPCLPEAEAMFAINADGVGDAKD
notes: Rad51 strand exchange protein, human; source: provided by Dr. Ian Hickson (Cancer Research UK Laboratories); purified recombinant
B1 was tested, and the Kd was 11.9 ± 2.1 nM.
